Molecular target: methemoglobin (UniProt P69905)
Assay: ELISA

Substance | percent loss of hemoglobin binding against the untreated sample [%] | EC50 [nM]
DEPC-treated wild-type ShuA (from UniProt P72412 1-660) (natural protein) | 60 | 
DEPC-treated wild-type ShuA further treated with hydroxylamine (from UniProt P72412 1-660) (natural protein) | 40 | 
purified ShuA Ala-L11 (non-phage-displayed) (from UniProt P72412 1-660) (natural protein) |  | 530
purified ShuA H86A/H420A (non-phage-displayed) (natural protein) |  | 6900
purified wild-type ShuA (non-phage-displayed) (from UniProt P72412) (natural protein; other documents disagree on this pair) |  | 530

Reference: publication PMC5564213
